Legend:
[1] = target: human ALPPL2 on tumor cells (M28, SKOV3, AsPC1) (human) (UniProt P10696); assay: apparent KD, flow cytometry, Fab on living M28 cells
[2] = target: T1, human ALPPL2 on tumor cells (M28, SKOV3, AsPC1) (human, UniProt P10696 20-503); assay: as above
T1 construct: whole, on cells; also called ALPPL2 expressing tumor cells; M28 cells
Description: (§1) FIG. 2. Binding of FYIA, FYIA_germ, and FYIA_germopt Fabs to living M28 cells. M28 cells were incubated with Fabs for 1 h at RT and binding was analyzed by flow cytometry.
FIG. 4. Additional Fabs (FYIA_germ_SY and FYIA_germ_6-6) were also studied along with FYIA, FYIA_germ, and FYIA_germopt Fabs for binding to living M28 cells. M28 cells were incubated with Fabs for 1 h at RT and binding was analyzed by flow cytometry.

human ALPPL2-Fc [3] = target: T2, human ALPPL2-Fc (human, UniProt P10696 20-503); assay: biolayer interferometry, tips loaded with Fab, 5 nM human ALPPL2-Fc as analyte
T2 construct: also called ALPG; not shown: Fc part not described
Description: FIG. 1. Biolayer interferometry (BLI) measurements of the affinity of FYIA, FYIA_germ, FYIA_germ_6-6, and FYIA_germopt (aka SYLY) Fabs for human ALPPL2. Tips were loaded with Fabs, followed by an association step with 5 nM human ALPPL2-Fc then a dissociation step.

[4] = target: T3, human ALPI on HEK293 cells (human, UniProt P09923 20-503); assay: flow cytometry on HEK293 cells stably transfected with human ALPI, 1 h at RT
T3 construct: whole, on cells; also called HEK293-ALPI cells
T3 sequence (looked up): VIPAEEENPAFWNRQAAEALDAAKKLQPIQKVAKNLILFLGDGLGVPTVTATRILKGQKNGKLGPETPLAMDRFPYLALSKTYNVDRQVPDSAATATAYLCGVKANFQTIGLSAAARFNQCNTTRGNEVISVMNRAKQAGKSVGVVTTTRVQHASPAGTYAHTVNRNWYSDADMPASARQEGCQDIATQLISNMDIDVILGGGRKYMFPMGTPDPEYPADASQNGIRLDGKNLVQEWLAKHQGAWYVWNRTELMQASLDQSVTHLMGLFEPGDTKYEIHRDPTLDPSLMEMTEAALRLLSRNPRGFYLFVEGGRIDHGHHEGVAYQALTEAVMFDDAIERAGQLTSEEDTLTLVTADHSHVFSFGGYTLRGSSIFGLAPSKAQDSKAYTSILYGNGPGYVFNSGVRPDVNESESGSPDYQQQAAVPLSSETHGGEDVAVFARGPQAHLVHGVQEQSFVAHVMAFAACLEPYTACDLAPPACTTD
Description: FIG. 3. Binding of FYIA, FYIA_germ, and FYIA_germopt Fabs to HEK293 cells stably transfected with human ALPI. HEK293-ALPI cells were incubated with Fabs for 1 h at RT and binding was analyzed by flow cytometry. No detectable binding was found. An ALPI-binding Fab, M25AD, was included in the study as a positive control.

[5] = target: T1, human ALPPL2 on tumor cells (M28, …); assay: cell binding study, monovalent Fab on M28 cells, flow cytometry
Description: as §1

[6] = target: T1, human ALPPL2 on tumor cells (M28, …); assay: cell-based or functional assay
ALPP on HEK293 cells = ALPP on HEK293 cells (UniProt P05187 23-506, limits assumed); assay: cell-based or functional assay
[7] = target: T1, human ALPPL2 on tumor cells (M28, …); assay: apparent KD, flow cytometry on living SKOV3 cells
Description: FIG. 16. Binding of the SYLY-based bispecific (DSDbody) to living SKOV3 cells. SKOV3 cells were incubated with Fabs for 1 h at RT and binding was analyzed by flow cytometry. […] There is no binding by the control bispecific YSC10×CD3 DSDbody that is built on a non-binding isotype control antibody YSC10.
In addition to mesothelioma cells, binding of the SYLY-based bispecific ALPPL2×CD3 DSDbody was also studied on the ovarian cancer cell line SKOV3. […] No binding was detected by the control bispecific YSC10×CD3 that is built on a non-binding isotype control antibody YSC10. For comparison, a reference DSDbody constructed from the parental FYIA was also studied on SKOV3 cells using flow cytometry.

human ALPPL2-Fc [8] = target: T2, human ALPPL2-Fc; assay: biolayer interferometry, tips loaded with human ALPPL2-Fc, 100 nM DSDbody as analyte
Description: (§2) FIG. 12. Binding of SYLY×CD3 DSDbody to human ALPP2 and ALPI measured by biolayer interferometry. Tips were loaded with either human ALPPL2-Fc or human ALPI-Fc, followed by an association step with 100 nM SYLY×CD3 DSDbody and then a dissociation step. Calculated affinites are shown in the graph. ND: not determined.
(§3) The DSDbody was also evaluated by biolayer interferometry for cross-species binding to both human and cynomolgus monkey CD3 epsilon chains.

human CD3 epsilon [9] = target: T4, human CD3 epsilon (human, UniProt P07766 23-126); assay: biolayer interferometry, tips loaded with human CD3 epsilon, 100 nM DSDbody as analyte
Description: (§4) FIG. 13. Binding of SYLY×CD3 DSDbody to human and cynomolgus monkey CD3 epsilon measured by biolayer interferometry. Tips were loaded with either human or cynomolgus monkey CD3 epsilon, followed by an association step with 100 nM SYLY×CD3 DSDbody and then a dissociation step.
as §3

[10] = target: T1, human ALPPL2 on tumor cells (M28, …); assay: apparent KD, flow cytometry on living M28 cells; M28 mesothelioma cells, flow cytometry
human ALPI-Fc = target: T5, human ALPI-Fc (human, UniProt P09923 20-503); assay: BLI; tips loaded with human ALPI-Fc, association with 100 nM SYLYxCD3 DSDbody, then dissociation
T5 construct: not shown: Fc part not described
T5 sequence (looked up): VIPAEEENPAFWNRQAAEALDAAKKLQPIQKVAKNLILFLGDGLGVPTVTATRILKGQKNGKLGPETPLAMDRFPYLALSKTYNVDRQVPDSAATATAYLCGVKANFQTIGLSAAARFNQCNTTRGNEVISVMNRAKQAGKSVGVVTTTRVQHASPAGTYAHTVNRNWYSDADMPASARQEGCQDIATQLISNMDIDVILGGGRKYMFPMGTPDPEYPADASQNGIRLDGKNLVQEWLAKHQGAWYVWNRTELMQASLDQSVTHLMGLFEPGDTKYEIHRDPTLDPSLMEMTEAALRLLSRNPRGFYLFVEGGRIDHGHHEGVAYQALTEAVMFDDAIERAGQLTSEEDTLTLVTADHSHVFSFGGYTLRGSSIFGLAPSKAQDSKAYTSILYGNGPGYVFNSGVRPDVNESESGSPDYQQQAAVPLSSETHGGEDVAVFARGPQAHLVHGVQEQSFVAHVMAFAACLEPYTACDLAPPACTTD
Description: as §2, §3

human ALPPL2-Fc [11] = target: T2, human ALPPL2-Fc; assay: BLI; tips loaded with human ALPPL2-Fc, association with 100 nM SYLYxCD3 DSDbody, then dissociation
Description: as §2, §3

human CD3 epsilon [12] = target: T4, human CD3 epsilon; assay: BLI; tips loaded with human CD3 epsilon, association with 100 nM SYLYxCD3 DSDbody, then dissociation
Description: as §4, §3

[13] = target: T1, human ALPPL2 on tumor cells (M28, …); assay: flow cytometry on AsPC1 cells, anti-hexahistidine detection, curve fit of MFI; AsPC1 pancreatic cancer cells, flow cytometry
Description: The bispecific (ALPPL2×CD3) SYLY DSDBody was incubated with AsPC1 cells at room temperature for 1 h, washed and further incubated with anti-tag (hexahistidine (SEQ ID NO: 102)) antibodies for detection by flow cytometry. […] See, FIG. 24.

[14] = target: T6, cynomolgus monkey CD3 epsilon (cynomolgus monkey, UniProt Q95LI5 22-117); assay: BLI; tips loaded with cynomolgus monkey CD3 epsilon, association with 100 nM SYLYxCD3 DSDbody, then dissociation
T6 sequence (looked up): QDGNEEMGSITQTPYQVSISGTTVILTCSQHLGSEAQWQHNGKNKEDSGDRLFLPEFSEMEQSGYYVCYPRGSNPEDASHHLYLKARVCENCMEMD
Description: as §4, §3

T2 sequence (P10696 20-503): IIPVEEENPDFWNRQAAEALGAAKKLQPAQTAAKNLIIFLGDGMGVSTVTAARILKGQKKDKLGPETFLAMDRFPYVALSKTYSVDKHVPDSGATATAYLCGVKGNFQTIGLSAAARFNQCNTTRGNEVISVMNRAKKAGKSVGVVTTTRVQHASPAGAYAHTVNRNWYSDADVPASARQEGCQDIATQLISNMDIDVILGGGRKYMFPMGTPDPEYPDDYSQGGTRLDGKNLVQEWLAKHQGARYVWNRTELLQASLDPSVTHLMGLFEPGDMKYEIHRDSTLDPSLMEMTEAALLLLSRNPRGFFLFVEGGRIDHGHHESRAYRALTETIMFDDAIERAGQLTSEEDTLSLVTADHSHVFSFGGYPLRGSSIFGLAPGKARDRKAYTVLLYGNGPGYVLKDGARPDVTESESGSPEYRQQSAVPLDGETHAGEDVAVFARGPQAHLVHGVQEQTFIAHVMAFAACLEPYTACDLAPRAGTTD
T1 sequence (P10696 20-503): as above
T4 sequence (P07766 23-126 limits assumed): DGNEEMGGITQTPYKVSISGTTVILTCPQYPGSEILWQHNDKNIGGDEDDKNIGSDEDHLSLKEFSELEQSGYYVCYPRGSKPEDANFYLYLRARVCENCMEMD
ALPP on HEK293 cells, sequence (P05187 23-506 limits assumed): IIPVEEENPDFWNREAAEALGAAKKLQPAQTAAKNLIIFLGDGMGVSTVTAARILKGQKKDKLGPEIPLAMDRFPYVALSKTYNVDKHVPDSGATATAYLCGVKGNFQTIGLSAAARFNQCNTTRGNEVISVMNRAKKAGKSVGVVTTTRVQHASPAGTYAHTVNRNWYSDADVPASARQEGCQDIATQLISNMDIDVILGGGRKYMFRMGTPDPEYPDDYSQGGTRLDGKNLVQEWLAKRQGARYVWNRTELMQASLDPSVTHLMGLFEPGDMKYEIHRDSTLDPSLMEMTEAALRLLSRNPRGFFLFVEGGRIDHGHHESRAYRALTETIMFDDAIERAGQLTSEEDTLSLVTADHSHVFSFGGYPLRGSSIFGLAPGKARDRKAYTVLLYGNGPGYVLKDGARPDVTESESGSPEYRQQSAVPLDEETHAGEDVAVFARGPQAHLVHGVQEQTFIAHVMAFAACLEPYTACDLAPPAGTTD
human ALPPL2 on tumor cells (M28, SKOV3, AsPC1) (human), sequence (P10696 20-503): as the sequence (P10696 20-503) above

B1: FYIA_germ_SY Fab (Fab, part only; not given: light variable domain, not tied by name, V domains shown, part only)
VH: EVQLVESGGGLVQPGGSLRLSCAASGFTFSAYAMHWVRQAPGKGLEWVAVISYEGYNAYYADSVKGRFTISRDNSKNTLYLQMNSLRAEDTAVYYCAKEGDYSRWAYDLWGRGTLVTVSS
B1 gave a Kd [1] of 1.27 nM.

B2: FYIA_germ Fab (Fab, V domains shown)
VH: EVQLVESGGGLVQPGGSLRLSCAASGFTFSSYAMHWVRQAPGKGLEWVAVISYDGSNKYYADSVKGRFTISRDNSKNTLYLQMNSLRAEDTAVYYCAKEGDSSRWSYDLWGRGTLVTVSS
VL: QSALTQPASVSGSPGQSITISCTGTSSDVGGYNYVSWYQQHPGKAPKLMIYDVTNRPSGVSNRFSGSKSGNTASLTISGLQAEDEADYYCSSYTIASTLVVFGGGTKLTVL
notes: Tested as monovalent Fab
B2 was tested, and the Kd [2] was 69.4 nM, the Kd (human ALPPL2-Fc [3]) was 13 nM and the binding result [4] was “no binding (tested: 10000 nM)”.

B3: FYIA_germopt Fab (Fab, V domains shown)
VH: EVQLVESGGGLVQPGGSLRLSCAASGFTFSAYAMHWVRQAPGKGLEWVAVISYEGYNAYYADSVKGRFTISRDNSKNTLYLQMNSLRAEDTAVYYCAKEGDYSRWAYDYWGRGTLVTVSS
VL: QSALTQPASVSGSPGQSITISCTGTSSDVGGYNYVSWYQQHPGKAPKLMIYDVTNYPSGVSNRFSGSKSGNTASLTISGLQAEDEADYYCSSYTVATTLVVFGGGTKLTVL
notes: Tested as monovalent Fab; also called SYLY
In the case of B3, the Kd [2] is reported as 0.967 nM, the “fold improvement over the parental FYIA” value [5] is reported as greater than 30 fold and the Kd (human ALPPL2-Fc [3]) is reported as 0.19 nM. B3: no binding (tested: 10000 nM) [4].

B4: SYLY-based bispecific ALPPL2×CD3 DSDbody (bispecific antibody)
chain 1: EVQLVESGGGLVQPGGSLRLSCAASGFTFNTYAMNWVRQAPGKGLEWVGRIRSKYNNYATYYADSVKDRFTISRDDSKNSLYLQMNSLTACDTAVYYCVRHGNFGNSYVSWFAYWGQGTLVTVSSGGGGSQSALTQPASVSGSPGQSITISCTGTSSDVGGYNYVSWYQQHPGKAPKLMIYDVTYRPSGVSNRFSGSKSGNTASLTISGLQAEDEADYYCSSYTVATTLVVFGGGTKLTVLASTKGPSVFPLAPSSKSTSGGTAALGCLVKDYFPEPVTVSWNSGALTSGVHTFPAVLQSSGLYSLSSVVTVPSSSLGTQTYICNVNHKPSNTKVDKKVEPKSCHHHHHH
chain 2: EVQLVESGGGLVQPGGSLRLSCAASGFTFSAYAMHWVRQAPGKGLEWVAVISYEGYNAYYADSVKGRFTISRDNSKNTLYLQMNSLTACDTAVYYCAKEGDYSRWAYDYWGRGTLVTVSSGGGGSDIQMTQSPSSLSASVGDRVTITCRSSTGAVTTSNYANWVQQKPGKAPKGLIGGTNKRAPGVPSRFSGSLIGDKATLTISSLQPEDFATYYCALWYSNLWVFGQGTKVEIKRTVAAPSVFIFPPSDEQLKSGTASVVCLLNNFYPREAKVQWKVDNALQSGNSQESVTEQDSKDSTYSLSSTLTLSKADYEKHKVYACEVTHQGLSSPVTKSFNRGEC
notes: Dually stabilized diabody: inter-chain disulfide link and CH1/CL pairing; Anti-CD3 arm is humanized SP34 (hSP34k2); also called SYLY×CD3 DSDbody; SYLY DSDbody
B4 was tested, and the “EC50 of killing of SKOV3 cells with human PBMC (E:T 10:1, 96h, Calcein AM)” value [6] was 0.0003 nM, the “EC50 of killing of HEK293-ALPP cells with human PBMC (E:T 10:1, 72h, Calcein AM)” value (ALPP on HEK293 cells) was 0.0085 nM and the Kd [7] was 0.19 nM. It also gave a Kd (human ALPPL2-Fc [8]) of roughly 0.2 nM, a Kd (human CD3 epsilon [9]) of 20 nM and a Kd [10] of 2.4 nM. For the same binder, the binding result (human ALPI-Fc) was “no binding (tested: 100 nM)”, the Kd (human ALPPL2-Fc [11]) was 0.2 nM and the Kd (human CD3 epsilon [12]) was 25 nM. The Kd [13] was 4.35 nM and the Kd [14] was 18 nM.
